B1: Wee1 (enzyme)
chain: MSSSSNTSSHRSYGLRRSQRSMNLNRATLLAPPTPSSLYDANNSTSSTSSQKPNTSFTSLFGPRKQTTSSPSFSHAAPLHPLSPPSFTHSQPQIQAQPVPRRPSLFDRPNLVSRSSSRLGDSPSLSPVAQVANPIHHTAPSPSDVRAFPIHKNASTGVKRSFFSSSMSNGAMSPPSHSPSPFLQSSQHIPPSTPAQKLRKKNNFDSFRISNSHISPFASGSFSPFATSSPNFLSTSTPAPPNSNNANPSTLFSSIPSSRHTTSNHFPSNSAQSSLFSPTARPLTARKLGFASSQTKSAVSNNHSRNSSKDASFMMKSFIPSNRSHPQTQQNESSLFSDNSMVNSSSNSFSLFPNATLPNPPSSELLTTPFQQIKPPSQVFMSTGLLSKQHRPRKNINFTPLPPSTPSKPSTFVRPHSSSTDSPPSPSTPSNTQTDSYFIQRENTPTNHNSIPTIQLEKSSMDFLRFDPPPSAVKTSHNYGLPFLSNQRCPATPTRNPFAFENTVSIHMDGRQPSPIKSRNNNQMSFAMEEEADVSQPSSSSFTLSFPSALTSSKVSSSTSHLLTRFRNVTLLGSGEFSEVFQVEDPVEKTLKYAVKKLKVKFSGPKERNRLLQEVSIQRALKGHDHIVELMDSWEHGGFLYMQVELCENGSLDRFLEEQGQLSRLDEFRVWKILVEVALGLQFIHHKNYVHLDLKPANVMITFEGTLKIGDFGMASVWPVPRGMEREGDCEYIAPEVLANHLYDKPADIFSLGITVFEAAANIVLPDNGQSWQKLRSGDLSDAPRLSSTDNGSSLTSSSRETPANSIIGQGGLDRVVEWMLSPEPRNRPTIDQILATDEVCWVEMRRKAGAIIYEGIHGSSSNPQGDQMMEDWQVNV
B2: Cdc25 (enzyme)
chain: MDSPLSSLSFTNTLSGKRNVLRPAARELKLMSDRNANQELDFFFPKSKHIASTLVDPFGKTCSTASPASSLAADMSMNMHIDESPALPTPRRTLFRSLSCTVETPLANKTIVSPLPESPSNDALTESYFFRQPASKYSITQDSPRVSSTIAYSFKPKASIALNTTKSEATRSSLSSSSFDSYLRPNVSRSRSSGNAPPFLRSRSSSSYSINKKKGTSGGQATRHLTYALSRTCSQSSNTTSLLESCLTDDTDDFELMSDHEDTFTMGKVADLPESSVELVEDAASIQRPNSDFGACNDNSLDDLFQASPIKPIDMLPKINKDIAFPSLKVRSPSPMAFAMQEDAEYDEQDTPVLRRTQSMFLNSTRLGLFKSQDLVCVTPKQSTKESERFISSHVEDLSLPCFAVKEDSLKRITQETLLGLLDGKFKDIFDKCIIIDCRFEYEYLGGHISTAVNLNTKQAIVDAFLSKPLTHRVALVFHCEHSAHRAPHLALHFRNTDRRMNSHRYPFLYYPEVYILHGGYKSFYENHKNRCDPINYVPMNDASHVMTCTKAMNNFKRNATFMRTKSYTFGQSVLASPDVNDSPTAMHSLSTLRRF

Biological target: Cdc2-GFP (S. pombe, UniProt P04551 1-297)
Assay: affinity purification with mass spectrometry

Chain of Cdc2-GFP (P04551 whole entry): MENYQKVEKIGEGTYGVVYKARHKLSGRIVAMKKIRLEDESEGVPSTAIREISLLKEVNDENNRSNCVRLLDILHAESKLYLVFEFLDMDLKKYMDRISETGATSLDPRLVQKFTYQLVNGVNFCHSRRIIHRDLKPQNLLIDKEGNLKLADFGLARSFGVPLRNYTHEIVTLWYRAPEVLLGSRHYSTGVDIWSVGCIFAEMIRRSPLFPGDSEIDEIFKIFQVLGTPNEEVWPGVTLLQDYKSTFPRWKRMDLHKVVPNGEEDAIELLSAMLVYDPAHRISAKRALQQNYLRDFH

Row | Binder | fold increase in association with Cdc2, suc1^ts versus suc1+ cells [fold]
1 | B1 | 2.5
2 | B2 | 3

Reference: publication doi:10.1101/2025.07.04.663185 (bioRxiv, 2025)
